{
  "source": "a protein production outcome set (Wang et al. 2014)",
  "data": [
    {"assay": "label from the status in PepcDB records", "values": [
      {"sequence": "ILARTKIFPWFFDLKRNKMLIDAHWFSYLGIPAGDCEITIEKFFSRVHPNERDMLADALQKQLSEKEIPDSFSYRLQRGDGSWEWFSEQSMYLSKTNDGSPYRIVGVCHSIQEHKNT", "protein production": "failed"},
      {"sequence": "ILWSQFLKFKEMELPAKEADKNRSKGIYQSLEGAVQAGQLKVPPGYHPLDVEKEWGKLHVAILEREKQLRSEFERLECLQRIVTKLQMEAGLCEEQLHQADALLQSDIRLLAAGKVPQRAGEVERDLDKADSMIRLLFNDVQTLKDGRHPQGEQMYRRVYRLHERLVAIRTEYNLRLK", "protein production": "failed"},
      {"sequence": "IRQARDLLVASMRNPPSLELLAQKTGLNVRKLNLGFRRMYRATAYGFLQEYRLEQAYKLISSGEMSVSQAAYHVGYGAAHFATVFRKRFGVSPSRLR", "protein production": "failed"},
      {"sequence": "ISPGAAGGAEDGFFVPPTKGTSPTQIWCNNSQLPVDHILAGSFETAMRLLHDQVGVIQFGPYKQLFLQTYARGRTTYQALPCLPSMYGYPNRNWKDAGLKNGVPAVGLKLNDLIQRLQLCYQLTTVGKFEEAVEKFRSILLSVPLLVVDNKQEIAEAQQLITICREYIVGLSVETERKKLPKETLEQQKRICEMAAYFTHSNLQPVHMILVLRTALNLFFKLKNFKTAATFARRLLELGPKPEVAQQTRKILSACEKNPTDAYQLNYDMHNPFDICAASYRPIYRGKPVEKCPLSGACYSPEFKGQICRVTTVTEIGKDVIGLRISPLQFR", "protein production": "failed"},
      {"sequence": "ISSDEALKLIKEQPQLFDEYHDGFRSQVQAWPENPVDVFVDQIRYRCMKPVNAPGGLPGLKDSKEIVIADMGCGEAQLALEINNFFKNYNKKAKKYLKRRHKVHSFDLKKANERITVADIRNVPLPDESCTIVVFCLALMGTNFLDFIKEAYRILAPRGELWIAEIKSRFSDGKGNEFVDALKLMGFFHKKTFDENKMFTRFEFFKPPAEIIEERRQ", "protein production": "failed"},
      {"sequence": "IVAGFTSIPSQGDNMPAYHARPKQSDGPLPVVIVVQEIFGVHEHIRDICRRLALEGYLAIAPELYFREGDPNDFADIPTLLSGLVAKVPDSQVLADLDHVASWASRNGGDVHRLMITGFCWGGRITWLYAAHNPQLKAAVAWYGKLTGDKSLNSPKQPVDIATDLNAPVLGLYGGQDNSIPQESVETMRQALRAANAKAEIIVYPDAGHAFNADYRPSYHAESAKDGWQRMLEWFTQY", "protein production": "failed"},
      {"sequence": "IVISAFEQTLWRSEPETPLKVYQLLSGAHYRTSPLDLRRMMDAPGQHFLQAAGENEIAGALCLVDEGGLSQELSQAVWAGYRRPRGNLVAQSLAAHGSNPLAATLRGRRVSRIAVHPARQREGTGRQLIAGALQYIHDLDYLSVSFGYTEELWRFWQRCGFVLVRMGNHREASSGCYTAMALLPM", "protein production": "failed"},
      {"sequence": "KDNTKVIAHRGYWKTEGSAQNSIRSLERASEIGAYGSEFDVHLTADNVLVVYHDNDIQGKHIQSCTYDELKDLQLSNGEKLPTLEQYLKRAKKLKNIRLIFELKSHDTPERNRDAARLSVQMVKRMKLAKRTDYISFNMDACKEFIRLCPKSEVSYLNGELSPMELKELGFTGLDYHYKVLQSHPDWVKDCKVLGMTSNVWTVDDPKLMEEMIDMGVDFITTDLPEETQKILHSRAQ", "protein production": "not failed"},
      {"sequence": "KDPLLNSLIYVSRYYGLANSPEALVNGLPLSDGKLTPFLLPRAAERAGLVAKENRAELEKISSLILPAILVLKGGDSCVLNSINMETREAEVTTLESGMVPISIPLEDLLEQYTGRYFLVKKQFR", "protein production": "failed"},
      {"sequence": "KERERLEEKLEDANERIAELVKLEERQRIARDLHDTLGQKLSLIGLKSDLARKLIYKDPEQAARELKSVQQTARTSLNEVRKIVSSMKGIRLKDELINIKQILEAADIMFIYEEEKWPENISLLNENILSMCLKEAVTNVVKHSQAKTCRVDIQQLWKEVVITVSDDGTFKGEENSFSKGHGLLGMRERLEFANGSLHIDTENGTKLTMAIPNNSK", "protein production": "not failed"},
      {"sequence": "KIMIAALDYDPGDGQMGGQGKGRLALRAGDVVMVYGPMDDQGFYYGELGGHRGLVPAHLLDHMSLHGH", "protein production": "not failed"},
      {"sequence": "KMMVLYNETSGSSESKEIAERFKKAAEARGEAVILQPSNPDIDPEEMRKNAKENQVGVLVVIGGDGTIHHAVQNFKDTIRDYQIGIIPGGTVNNFARVLSIPLKEEDAFETILAGQTTPVDFGMVNQD", "protein production": "not failed"},
      {"sequence": "KNRLGTKALNFTYTLDSGVKGTLYQFPAEYTLLFINNPGCHACAEMIEGLKASPVINGFTAAKKLKVLSIYPDEELDEWKKHRNDFAKEWTNGYDKELVIKNKNLYDLRAIPTLYLLDKNKTVLLKDATLQKVEQYLAE", "protein production": "not failed"},
      {"sequence": "KNVNNAEEYWDVIDLRVYPGKNGYFELYDDDGITYEYEKGKYYIIPITWDEDKQELTIGKKRGELEMSKKIIKIIWVEKGKGIEHTKPDVEIEYNGKETITVKRG", "protein production": "failed"},
      {"sequence": "KPKDIKYVVEESKFKDLREILEFMLKDAVQKLDMFLDMLNYSKPKVDVGDEVIEIKKDNVIEALKLFKDEYEVSKKHIPVPVYTYLIKRNILFLNPIEGILKPQSYLVWNAIKRLL", "protein production": "failed"},
      {"sequence": "KPSQEGGKGGSEKPKRPVSAMFIFSEEKRRQLQEERPELSESELTRLLARMWNDLSEKKKAKYKAREAALKAQSERK", "protein production": "not failed"},
      {"sequence": "KREHFRDDYLYRFYQYGDTHSKIPSNLYKVLARKLDMISASENINDLRSPPANHLELLEPKENKIYSIRVNKQYCLIFKYENNEVNNLYLDPH", "protein production": "failed"},
      {"sequence": "KSHSRTLTPTPDGKTMLRPVLRLTSAMTREVATDHKAFYVLFTWDQEAQIYELVAQTVSERKNWCALITETAGSLKV", "protein production": "failed"},
      {"sequence": "KSNEIVELSVQKWINELRDANNKLQQEVSELKKKEVNLESSLSLLSSTLESTAIGIVAINFEGDILNYNQKFAEMWKLPQQLILSKKCPRCKAFFEGQMKDPETFNRLIWAVSSTSNIESYDVLELKDGRVFAHYSQPQWLGQ", "protein production": "failed"},
      {"sequence": "KSTVEKSTVGQKVAIVREDTGTIAELAEKALGNMVDIVYAGSDLKEAEEAVKKEKAPAIIVIPKGFSQSLESGEKARLEIVWYLRGTGLSEAVSTGTISSLIESLKVQLASFLLNDPKKAQLLFDPLEIVQHTYLRGSLFKNHSPEAIMNVFYSQN", "protein production": "not failed"},
      {"sequence": "KTGQLLPKSPAARYEAIQWLMFQMGGVGPMFGQLGFFHKFAGKDYEDKRPRDRYVAESRRLLQVLEGRMAGRAWIMGDEYTIADIAIWPWVRNLVGFYGAGELVGFDDFPNIQRVVQAFAERPAVARGLAIPARD", "protein production": "failed"},
      {"sequence": "KTIFVIVPTNEEQVAFLEALAKQDELNFDWQNPPTEPGQPVVILIPSDMVEWFLEMLKAKGIPFTVYVEEGGSENLYFQ", "protein production": "not failed"},
      {"sequence": "KVGLIIISHGRIATETVNVVKELLGVKFPVAIDMPLDEKPINIYNKAVELSKIIDQGKGILFLVDIGSLTNIGQIVNKRTNISTKTIDRVDLLMALEATRKVSMGEEELDEIFFSLLKDRMGYNYELEKHIDKS", "protein production": "failed"},
      {"sequence": "KYYWNNVNYDPATLFSASCLLFYVLDAIIFEHHLSSSFELQHEGYGCLLLLRYAATPYLLTAVTKYFYEQRVPISCWYAPLAVAALLSLGLLVKRFSCAYKYKYRLNSQSPIFANIETIHTYQGSRLLLSGMWGWVRQPNYLGDIVALLALAAPMALRPAWPPVLGLSLIILLLLHRATRANARNQARYHSSWQRYSTQVRSYILPRVY", "protein production": "failed"},
      {"sequence": "LAAMSIDLGSQFIKIGLVKPGVPMDIVLNKESRRKTPNVISFKNDERFFAEAAAAMSSSHPQSSYNFLLSMIARKEGDDAFVTFQKTFPFTAFEFDEVRKTVVFPYKEEKYNVETLLAMILWNAKKVTEAYADQTVKDVVITVPIFLNQAERRAIASAAEIAGLNLLQLLNDGSAAALNYGVFRRKEITEKPTHMLIYDMGAVKTTATIVQYVLESTRKDGKDKQPTLRTVGVGFDKTLGGLEITNRLRDHLEKVFRDTVKTSKDISTNARAIGKLHKEAERVKQVLSANKDTYAQVESLFEEQNFRAKVTREELEKMIEDLEPRIAAPILDAIGMAQISTNDIDLVVLMGAGTRVPKVKEILKTILKDKEISNFLNTDEAIAMGAVYQAAHLSKSFKVLPFNVHEKILYPVFVNFLTKTEEGTMKPIRKSLFGENYPVPNRVMHFSSYSDDFKIDIQDADKNPLSTVEISGVKDAIEKEVTDE", "protein production": "failed"},
      {"sequence": "LADYSTEELEKIADKFRSDTSGIRGTKDFTSPEELYDELKKEIKKYHPSDDTSLVDKAYRVAYDAHKGQARKSGEPYIIHPLCVAIILAELELDKETIAAGLLHDVLEDTIMTMDEMRAEFGDDVAHLVDGVTKLKHLHLTDSTKDPKDKNADRLEMQAENLRKMFLAMAKDIRVILIKLADRLHNMRTLKYQSKEAQQRIARETQDIYCPIAQRLGISKIKIELEDLCMKYLYPDAYYDLVEKVALRKTERDTYIQGLVNDVKKYVSDAGIKAEIYGRAKHFFSIYKKMVNQDKTIDQIYDLFAIRILVDTIPDCYAVLGIIHEKYKPIPGRFKDYIAMPKQNMYQSLHTTLIGPSGQPFEIQIRTYEMHRTAEYGIAAHWKYKETNNGNATTTTVTEEEKLSWLRQILEWQQDMSDNKEFMTLLKSDLNLFSDNVFAFTPSGDVKNLPKGSTPIDFAYSIHSAVGNKMVGAKVNGKLVPIDYVIKNGDQIEIITSQNSKGPSRDWLKVVKSTQAKNKINQWFRSELKEENIQHGKDLIAAYAKAKGINFAEINKPEYQEKIRRKYGFHDWNSCLATVGHGGLKESQIVNRMYDEYKKDHVVPVTDADVLGSIAEKQQAAAGTQPEHKSKSGIVVHGLYDVAVHFSKCCNPVPGDEIVGFVTRGRGISIHRTDCVNIINLSKIEKDRLIEAEWQDTALMDNGAEYQADLKIFCHDRPGLLVDITKIFTEKEINISGIQSKTSKQGIATIEVFFNIKGRDQIKVLVEKLRQIESVIDVERTTG", "protein production": "failed"},
      {"sequence": "LANKQIESRIIQFDVEFPSDEVAKQLSIEKTVPVYHIIRLRKVEGEPYVIEETYMPSNVISELNEDVLHGSVYRHITETLKLTIAGSHRKIRADKSSALDREYLECAPDDPVLEVEQVAFLNTGEPFEYSFARHRYDKFVFSSVHIRK", "protein production": "failed"},
      {"sequence": "LAQEKNYDLPEGVMVYVIEGPFFFGAVETFQSALANTHTDPKVLIIRMRWVPFIDVTGLQAMEEIILNLQKRGVRVLLSEANPLVDAKLRKMGIVQLIGEQNYYKEFSQALDVCRINDSDRKSQPPFEVAKPLASVTQ", "protein production": "not failed"},
      {"sequence": "LDTIPTTYVDAGSVFGKTGDAEKVLNGGWNYLMETFNSYANPGYGAMLRANDAMGSDVVLNSKYGFRTHNEFSAIYGKGGTNTLSWLLAYRVINDCNGVLDNIDAAEGTQADRNRIKGQALALRGFLYLHLASCYSFAIDKDPDAVCAPIYTQSTDETIAAEGKPASSVSEVYAQSINDLEEALELIPETYVRDAKHKIDNEVVLGILSRACLYARQWEKAKTYSDKLLAKDNYLMTESEYKAGFNSVDNKEWIWGHAQTNDQSNASYQFHYLDTTTKGSYYYSFNVDPYFRDLFEDGDYRKEMLFWATDPGADVESAAYVWMRNSKFRFRDIENQLGDIVLMRVAEIYLINAEAKAHLNDPDAINKLNDLKTARGAKTIHTNLSQQDLLETIWLERRKELWGEGFSLIDIIRNQQTVVRNAYPEGPIDYIYTDENGQTHTLKKKTQGHRFFNFPDKSAFCPNSKYYLYRITDSEELANKNLYKDHPKLSIYTK", "protein production": "not failed"},
      {"sequence": "LDYQRLYGTRCFSCDQFIEGEVVSALGKTYHPDCFVCAVCRLPFPPGDRVTFNGKECMCQKCSLPVSV", "protein production": "not failed"},
      {"sequence": "LEAVAPERPRCAYCSAEASKRCSRCQNEWYCCRECQVKHWEKHGKTC", "protein production": "not failed"},
      {"sequence": "LECDGKVNICCKKQFFVSFKDIGWNDWIIAPSGYHANYCEGECPSHIAGTSGSSLSFHSTVINHYRMRGHSPFANLKSCCVPTKLRPMSMLYYDDGQNIIKKDIQNMIVEECGCS", "protein production": "not failed"},
      {"sequence": "LETSWIKPGQASWEWWNDAAPYGPDVNFVSGYNLETYKYYIDFASKYGIRYIIMDEGWAKSTRDPYTPNAKVDVHELIRYAEKKNVGIVLWLTWLTVENNMDLFKTFSEWGVKGVKIDFMDRSDQWMMNFYERVAAEAAKYKLFVDFHGSVSPKGLEYKYPNVLSYEGVRGMEQMGGATPDNSIFMPFMRNAVGAMDYTPGAM", "protein production": "failed"}
    ]}
  ]
}
